From patent publication US20260250651, “CAS12 PROTEINS AND USES THEREOF” (GUANGZHOU REFORGENE MEDICINE CO., LTD., published 2026)

Legend:
[1] = target: T1, Cas12i-111 (N295R,N260R,G705R,L332R); experiment: cell_activity; 293T indels
T1 chain: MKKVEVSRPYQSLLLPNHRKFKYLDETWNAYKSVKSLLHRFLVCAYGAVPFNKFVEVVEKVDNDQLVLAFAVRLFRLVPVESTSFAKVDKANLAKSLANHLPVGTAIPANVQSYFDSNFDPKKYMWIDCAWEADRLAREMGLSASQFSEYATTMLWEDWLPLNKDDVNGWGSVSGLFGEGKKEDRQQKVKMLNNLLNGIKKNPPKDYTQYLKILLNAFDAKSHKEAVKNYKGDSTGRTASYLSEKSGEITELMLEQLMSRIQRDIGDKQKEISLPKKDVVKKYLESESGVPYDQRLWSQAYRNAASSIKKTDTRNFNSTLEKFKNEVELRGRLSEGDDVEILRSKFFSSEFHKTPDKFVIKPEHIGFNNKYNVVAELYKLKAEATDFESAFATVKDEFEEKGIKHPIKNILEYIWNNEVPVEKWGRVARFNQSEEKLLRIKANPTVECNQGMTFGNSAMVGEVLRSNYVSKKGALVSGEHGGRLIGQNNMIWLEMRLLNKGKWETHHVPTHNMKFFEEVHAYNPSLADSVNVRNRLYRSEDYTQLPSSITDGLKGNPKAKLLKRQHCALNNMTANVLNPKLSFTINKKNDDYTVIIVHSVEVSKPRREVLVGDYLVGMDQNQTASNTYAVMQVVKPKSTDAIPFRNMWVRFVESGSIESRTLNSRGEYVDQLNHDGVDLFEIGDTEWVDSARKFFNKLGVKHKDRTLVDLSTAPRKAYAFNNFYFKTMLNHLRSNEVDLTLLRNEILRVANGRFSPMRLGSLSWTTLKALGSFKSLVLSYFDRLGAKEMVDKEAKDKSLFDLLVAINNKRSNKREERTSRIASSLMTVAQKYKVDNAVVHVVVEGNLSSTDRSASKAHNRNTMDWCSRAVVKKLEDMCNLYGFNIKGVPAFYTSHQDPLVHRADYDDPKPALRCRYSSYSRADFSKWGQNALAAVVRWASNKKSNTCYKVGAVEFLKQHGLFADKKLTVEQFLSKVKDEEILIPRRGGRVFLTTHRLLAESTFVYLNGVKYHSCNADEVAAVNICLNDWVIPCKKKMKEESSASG
Description: (§1) Plating: The 293T cell line was plated when the confluence reached 70-80%, and the number of cells seeded in a 24-well plate was 5*10\hat{ }5 cells/well.
(§2) Transfection: After 12-14 hours of plating, transfection was performed. 100 μl of Opti-MEM, 1.5 μl of PEI (Yisheng Bio, Polyethylenimine Linear (PEI) MW25000), 250 ng of the mutant clone plasmid from Example 2, and 250 ng of gRNA plasmid for targeting endogenous genes were added to each well of a 24-well plate. The mixture was incubated at room temperature for 20 minutes and then added to 293T cells for transfection. After transfection overnight, the medium was replaced with fresh medium and cultured for the next period.
(§3) DNA extraction, PCR amplification, and Sanger sequencing: After culturing for 72 hours, cells were washed with PBS, and then 100 μl of cell lysis buffer (Viagen, DirectPCR® Lysis Reagent (Cell)) was added for lysis to obtain a lysate containing genomic DNA. The genomic DNA was amplified in the region near the target sequence, and the PCR product was sent to a sequencing company for Sanger sequencing.

[2] = target: T2, Cas12i-99 (N295R,N260R,G705R,D590R); experiment: cell_activity; 293T indels
T2 chain: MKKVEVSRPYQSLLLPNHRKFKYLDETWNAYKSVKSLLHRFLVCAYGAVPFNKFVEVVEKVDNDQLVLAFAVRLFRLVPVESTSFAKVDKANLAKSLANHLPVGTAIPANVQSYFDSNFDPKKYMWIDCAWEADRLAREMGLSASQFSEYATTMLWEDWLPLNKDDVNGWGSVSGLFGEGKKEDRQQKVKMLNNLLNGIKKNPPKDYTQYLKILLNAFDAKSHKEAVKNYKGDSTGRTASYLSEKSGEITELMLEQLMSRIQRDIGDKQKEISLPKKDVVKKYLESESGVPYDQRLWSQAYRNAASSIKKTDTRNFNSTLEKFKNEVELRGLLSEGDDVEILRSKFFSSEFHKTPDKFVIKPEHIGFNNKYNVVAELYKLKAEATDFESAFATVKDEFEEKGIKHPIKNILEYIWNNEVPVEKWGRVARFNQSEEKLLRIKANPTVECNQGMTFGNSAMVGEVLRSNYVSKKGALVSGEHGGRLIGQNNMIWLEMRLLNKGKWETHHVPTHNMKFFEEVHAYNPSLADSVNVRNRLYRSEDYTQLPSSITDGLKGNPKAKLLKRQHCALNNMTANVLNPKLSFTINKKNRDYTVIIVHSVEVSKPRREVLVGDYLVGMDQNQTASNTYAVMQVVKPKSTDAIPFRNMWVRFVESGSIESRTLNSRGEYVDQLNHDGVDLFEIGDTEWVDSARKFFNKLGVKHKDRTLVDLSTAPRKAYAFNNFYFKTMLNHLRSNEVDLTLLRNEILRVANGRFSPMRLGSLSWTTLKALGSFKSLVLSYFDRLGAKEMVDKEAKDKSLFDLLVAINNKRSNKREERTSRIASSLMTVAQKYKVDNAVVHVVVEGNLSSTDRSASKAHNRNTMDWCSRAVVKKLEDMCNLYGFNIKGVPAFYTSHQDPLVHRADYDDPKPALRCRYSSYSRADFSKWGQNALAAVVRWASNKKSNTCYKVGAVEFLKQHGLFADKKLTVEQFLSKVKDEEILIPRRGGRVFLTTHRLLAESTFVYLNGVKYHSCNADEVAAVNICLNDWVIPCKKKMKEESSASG
Description: as §1, §2, §3

Binder | relative indel editing efficiency [1] | relative indel editing efficiency [2]
gRNA-HBG ; HBG target (ssRNA ; dsDNA) RNA: AGAGAAUGUGUGCAUAGUCACACACAAGGCAAACUUGACCAAU DNA 1: ACAAGGCAAACTTGACCAAT DNA 2: ATTGGTCAAGTTTGCCTTGT | 1.53 fold of wild type | 7 fold of wild type
gRNA-TTR ; TTR target (ssRNA ; dsDNA) RNA: AGAGAAUGUGUGCAUAGUCACACCAGUAAGAUUUGGUGUCUAU DNA 1: CAGTAAGATTTGGTGTCTAT DNA 2: ATAGACACCAAATCTTACTG | 3.91 fold of wild type | 1.19 fold of Cas12i-69
gRNA-HBB ; HBB target (ssRNA ; dsDNA) RNA: AGAGAAUGUGUGCAUAGUCACACUAUGCAGAAAUAUUGCUAUUGCCU DNA 1: TATGCAGAAATATTGCTATTGCCT DNA 2: AGGCAATAGCAATATTTCTGCATA | 1.01 fold of Cas12i-69 | 0.9 fold of Cas12i-69
